Measurements as given in patent US20030096367A1 (WASHINGTON UNIVERSITY, published 2003).

Experiments:
[1] = target: T1, human Bcl-2 mutant mI-4 (glutamic acid for the glycine in the WGR sequence of domain I) (human, UniProt P10415 1-239); assay: immunoprecipitation of human Bcl-2 from double transfected FL5.12 cells, Western blot with anti-mouse Bcl-2 antibody (FIG. 21)
T1 construct: also called mI 4-7; mI4-7
Source text: (§1) Immunoprecipitates were washed (unless indicated otherwise) once in lysis buffer followed by a wash in lysis buffer without NP-40. Immunoprecipitates were solubilized with SDS-PAGE sample buffer and electrophoresed through 12.5% SDS-polyacrylamide gels. Gels containing (³⁵ S)methionine labeled proteins were fixed with 10% glacial acetic acid and 30% methanol overnight, enhanced by impregnating with a commercial fluorography enhancing solution (Enhance by DuPont) for 60′, and […] in water for 30′. Gels were then dried and autoradiography performed at−70° C.
(§2) For immunoblots, proteins were electrotransferred overnight at 4° C. on nitrocellulose membranes. Filters were blocked for 2 hours with phosphate-buffered saline containing 3% non-fat milk. All additional immunostaining steps were performed in phosphate-buffered saline with 0.05% Tween-20 (PBS-Tween) at room temperature. Filters were incubated with primary antibody for 2 hours. Species specific biotinylated secondary antibodies (1:300) were also reacted for 2 hours. Immunoblots were reacted with horseradish-peroxidase-Streptavidin (1:1000) for 1 hour. Filters were washed in PBX-Tween 4 times for 5′ between each step and were developed with […] (BioRad) enhanced with nickel chloride (0.03%).
(§3) In FIG. 21 cells are created that bear two expression constructs. The Dα15 cell line is an FL5.12 bearing human Bcl-2 wild-type and mouse Bcl-2 wild-type vector. The DN2 bears a control Neomycin resistant expression vector and mouse Bcl-2 wild-type vector. The clone DSM4-5 contains mutant Bcl-2 of domain I and a mouse Bcl-2 wild-type whereas the DSM-4 contains another Bcl-2 mutant of human origin with mouse Bcl-2 wild-type. […] In FIG. 21B we see a primary immunoprecipitation of either wild-type human Bcl-2 or the mutated human Bcl-2 in which the 3-4 and 4-7 mutants have no associated Bax. Those immunoprecipitations are then developed by Western blot analysis with an anti-mouse Bcl-2 antibody. Both the wild-type human Bcl-2 as well as the two mutants mI 3-4 and mI 4-7 both associate with the wild-type mouse Bcl-2.

[2] = target: T2, wild type human Bcl-2 (human, UniProt P10415 1-239); assay: as above
T2 construct: also called hBcl-2; human Bcl-2 wild-type
Source text: as §1, §2, §3

[3] = target: T3, human Bcl-2 mutant mI-3 (alanine for the glycine in the WGR sequence of domain I) (human, UniProt P10415 1-239); assay: as above
T3 construct: also called mI 3-4; mI3-4
Source text: as §1, §2, §3

[4] = target: T1, human Bcl-2 mutant mI-4 (glutamic acid …); assay: immunoprecipitation of radiolabeled FL5.12 and 2B4 stable transfectants (FIG. 18)
Protocol: (§4) Prior to metabolic labeling, cells were washed once in prewarmed, serum-free, methionine-free Dulbecco's medium. Cells were resuspended at 3-5×10⁶ cells/ml in methionine-free Dulbecco's medium supplemented with 10% dialyzed FCS and either 5% complete medium or 5% WEHI 3B supernatant. Metabolic labeling was performed with 40 μCi/ml of ³⁵S)methionine, (³⁵S)cysteine for 9-12 hours before lysis. All steps of the immunoprecipitation were carried out on ice or in the cold room. Cells were washed twice with cold phosphate-buffered saline and lysed in an NP-40 isotonic lysis buffer with freshly added protease inhibitors (142.5 mM KCl, 5 mM MgCl₂, 10 mM HEPES pH:7.2, 1 mM EGTA, 0.2% NP-40, 0.2 mM phenylmethylsulfonyl fluoride, 0.1% Aprotinin, 0.7 μg/ml Pepstatin and 1 μg/ml Leupeptin) by nutation for 30′. Nuclei and unlysed cellular debris were removed by centrifugation at […] for 10′. Lysates were precleared with 10% v/v Protein A-Sepharose (Prot.A-S) for 30′ which was removed by centrifugation at 400×g for 2′. In experiments, the lysates were also mixed with 10× excess cold cells lysates for 15′ prior to the addition of the antibody. Specific antibodies were added for 90′ and immunoprecipitates were captured with 10% v/v Prot.A-S for 60′. […]

[5] = target: T3, human Bcl-2 mutant mI-3 (alanine for …); assay: as above
Protocol: as §4

B1: murine Bcl-2 (wild type) (other, UniProt P10417 1-236, looked up)
chain: MAQAGRTGYDNREIVMKYIHYKLSQRGYEWDAGDADAAPLGAAPTPGIFSFQPESNPMPAVHRDMAARTSPLRPLVATAGPALSPVPPVVHLTLRRAGDDFSRRYRRDFAEMSSQLHLTPFTARGRFATVVEELFRDGVNWGRIVAFFEFGGVMCVESVNREMSPLVDNIALWMTEYLNRHLHTWIQDNGGWDAFVELYGPSMRPLFDFSWLSLKTLLSLALVGACITLGAYLGHK
notes: also called endogenous murine Bcl-2; mouse Bcl-2 wild-type
**Q.** Does B1 bind [1]?
**A.** Result: binds

**Q.** Does B1 bind [2]?
**A.** Result: binds

**Q.** Does B1 bind [3]?
**A.** Result: binds

B2: murine Bax (endogenous p21 of FL5.12 cells, Bax alpha) (other)
chain: MDGSGEQLGSGGPTSSEQIMKTGAFLLQGFIQDRAGRMAGETPELTLEQPPQDASTKKLSECLRRIGDELDSNMELQRMIADVDRDSPREVFFRVAADMFADGNFNTGRVVALFYFASKLVLKALCTKVPELIRTIMGWTLDFLRERLLGWIQDQGGWEGLLSYFGTPTWQTVTIFVAGVLTASLTIWKKMG
notes: also called murine p21 protein; mouse p21
**Q.** Does B2 bind [4]?
**A.** Result: no binding

**Q.** Does B2 bind [5]?
**A.** Result: no binding
